Data on eleven substances can be found in publication PMC6980855.

A value given as a limit tells only on which side of the number the result lay.

In experiment [1] the target is Alexa647-labeled Bax (single cysteine mutant 126C) (human (H. sapiens)) (UniProt Q07812).
For experiment [2], the target named is Alexa568-labeled BimL-4E (mouse (M. musculus)). Kind of experiment: FRET or BRET; in solution, no membranes; constant Alexa568-labeled BimL protein (donor; 4 nM by the legend of Figure 3C, 20 nM by that of Figure 6-figure supplement 1) with increasing Alexa647-labeled Bax (acceptor); FRET from the decrease in Alexa568 fluorescence; fit: one site, specific binding with Hill slope. In general terms: BRET reads energy transfer from a luciferase to a nearby fluorophore.
Sequence of Alexa568-labeled BimL-4E (mouse (M. musculus)) (main, as listed by the source): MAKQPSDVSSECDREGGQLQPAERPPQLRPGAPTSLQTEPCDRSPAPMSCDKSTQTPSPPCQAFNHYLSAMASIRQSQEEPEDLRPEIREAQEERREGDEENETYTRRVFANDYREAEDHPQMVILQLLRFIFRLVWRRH

Experiment [3] concerns the target Alexa568-labeled BimL-dCTS (mouse (M. musculus)). Briefly: FRET or BRET; with mouse liver mitochondria present; 4 nM Alexa568-labeled BimL or BimL-dCTS with increasing Alexa647-labeled Bax; fit in the sheet: Kd fitting advanced (donor fixed at 4).
The target of experiment [4] is Alexa568-labeled BimL (single-cysteine mutant BimL Q41C) (mouse (M. musculus)). Kind of experiment: FRET or BRET; in solution, no membranes; 20 nM Alexa568-labeled BimL protein (donor) with increasing Alexa647-labeled Bcl-XL (acceptor); fit: one site, specific binding with Hill slope (BimL-dCTS: another model with a constant fixed at 4).
In experiment [5] the target is Alexa568-labeled BimL-L129E (mouse (M. musculus)). Described as above.
For experiment [6], the target named is Alexa568-labeled BimL-4E (mouse (M. musculus)). The description is as above.
Experiment [7] addresses Alexa568-labeled BimL-I132E (mouse (M. musculus)). Described as above.
Experiment [8] concerns the target Alexa568-labeled BimL-I125E (mouse (M. musculus)). The experiment is described as above.
Experiment [9] deals with Alexa568-labeled BimL-CTS2A (mouse (M. musculus)). The experiment is described as above.
In experiment [10] the target is Alexa568-labeled BimL-dCTS (mouse (M. musculus)). The description is as above.
Experiment [11] has as its target Alexa568-labeled BimL-V124E (mouse (M. musculus)). Described as above.
The target in experiment [12] is BimL-dCTS (Alexa568-labeled, recombinant) (murine). Briefly: FRET or BRET; with mouse liver mitochondria present (Bak-/-; 0.2 mg/mL in Figure 7—figure supplement 1B); 4 nM Alexa568-labeled BimL protein, Alexa647-labeled Bax or Bcl-XL titrated; apparent Kd.
Experiment [13] concerns the target BimL-I125E (Alexa568-labeled, recombinant) (murine). Kind of experiment: FRET or BRET; values of Figure 6B (Alexa568-labeled BimL mutant, Alexa647-labeled Bcl-XL); the sentence does not say whether in solution or with liposomes.
Experiment [14] deals with BimL-dCTS (Alexa568-labeled, recombinant) (murine). Briefly: FRET or BRET; in solution, no membranes; constant Alexa568-labeled BimL protein (donor; 4, 10 or 20 nM), Alexa647-labeled Bax or Bcl-XL (acceptor) titrated; FRET from the decrease in Alexa568 fluorescence; Tecan infinite M1000.
For experiment [15] the target is unchanged. Kind of experiment: FRET or BRET; with mitochondrial-like liposomes present; constant Alexa568-labeled BimL protein (4 or 20 nM), Alexa647-labeled Bax or Bcl-XL titrated; apparent Kd.
Experiment [16] addresses Bax (single cysteine 126C, Alexa647-labeled, recombinant) (H. sapiens) (UniProt Q07812).
The target is the same in experiment [17]. The source holds these as a separate data set.

Sequence of Bax (single cysteine 126C, Alexa647-labeled, recombinant) (H. sapiens) (Q07812 whole entry C62A): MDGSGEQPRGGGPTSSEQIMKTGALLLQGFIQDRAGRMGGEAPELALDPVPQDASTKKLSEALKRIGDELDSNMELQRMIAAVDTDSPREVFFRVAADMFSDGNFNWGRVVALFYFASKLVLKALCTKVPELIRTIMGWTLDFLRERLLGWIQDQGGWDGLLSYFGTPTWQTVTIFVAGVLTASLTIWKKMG
Sequence of Alexa647-labeled Bax (single cysteine mutant 126C) (human (H. sapiens)) (Q07812 other isoform, or with tags, fused parts or gaps mutant): as the sequence (Q07812 whole entry C62A) above

Regarding “Alexa568-labeled BimL (single-cysteine mutant BimL Q41C) (natural protein)”, the EC50 of Bax (100 nM) activation by BimL: ANTS/DPX release from liposomes in experiment [1] stood at 0.549 nM.

For the substance “Alexa568-labeled BimL-I125E (natural protein)”, in experiment [1], the EC50 of Bax (100 nM) activation by BimL-I125E: ANTS/DPX release from liposomes amounted to 105 nM.

In experiment [1], “Alexa568-labeled BimL-I132E (natural protein)” registered an EC50 of Bax (100 nM) activation by BimL-I132E: ANTS/DPX release from liposomes of 2800 nM.

In experiment [1], “Alexa568-labeled BimL-L129E (natural protein)” displayed an EC50 of Bax (100 nM) activation by BimL-L129E: ANTS/DPX release from liposomes of 2170 nM.

Consider “Alexa568-labeled BimL-V124E (natural protein)”, for which, in experiment [1], the EC50 of Bax (100 nM) activation by BimL-V124E: ANTS/DPX release from liposomes worked out at 1.21 nM.

On to “Alexa568-labeled BimL-dCTS (domain or fragment)”, for which the EC50 of Bax (100 nM) activation by BimL-dCTS: ANTS/DPX release from liposomes in experiment [1] is 489000 nM.

With “Alexa647-labeled Bax (single cysteine mutant 126C) (from UniProt Q07812 1-192) (natural protein)”, the Kd amounted to 74900 nM in [2] and 5.75 nM in experiment [3].

Regarding “Alexa647-labeled Bcl-XL (single cysteine mutant 152C) (from UniProt Q07817-1 1-233) (natural protein)”, the Kd was determined as 8.28 nM in [4]; 9.07 nM in experiment [5]; 70600 nM in experiment [6]; 9.75 nM in [7]; 8.06 nM in experiment [8]; 10.9 nM in experiment [9]. For the same substance, the Kd was 17.2 nM in experiment [10] and 11.3 nM in experiment [11].

In the case of “Bcl-XL (single cysteine 152C, Alexa647-labeled, recombinant) (from UniProt Q07817-1 1-233) (natural protein)”, the Kd was 35 nM in [12], under 3 nM in experiment [13], under 16 nM in [14] and 35 nM in experiment [15].

As for “BimL (single cysteine Q41C, Alexa568-labeled, recombinant) (natural protein)”, the EC50 of Bax-mediated permeabilisation of ANTS/DPX liposomes (100 nM Bax) in [16] amounted to 1 nM. The ANTS/DPX release after adding increasing Bax to isolated liposomes carrying ~5 nM membrane-bound BimL in experiment [17] is 60%.

As for “BimL-I125E (Alexa568-labeled, recombinant) (natural protein)”, the EC50 of Bax-mediated permeabilisation of ANTS/DPX liposomes (100 nM Bax) in [16] turned out to be 100 nM.
